Reference: US20240091270A1

Biological target: murine CD47 on mouse pancreatic beta islet cells (MIN6) (murine) (UniProt Q61735)
Assay: cell-based or functional assay

Sequence of UniProt Q61735 (Q61735 19-303): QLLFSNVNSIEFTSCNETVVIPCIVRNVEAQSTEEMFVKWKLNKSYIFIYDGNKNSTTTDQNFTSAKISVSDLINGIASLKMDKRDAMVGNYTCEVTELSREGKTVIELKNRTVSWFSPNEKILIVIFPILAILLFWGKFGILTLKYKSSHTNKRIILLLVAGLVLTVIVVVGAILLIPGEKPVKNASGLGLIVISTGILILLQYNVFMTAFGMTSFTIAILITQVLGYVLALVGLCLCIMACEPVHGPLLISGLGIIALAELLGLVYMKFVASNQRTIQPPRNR

In the case of “anti-CD47 blocking antibody (clone MIAP301, SC-12731, Santa Cruz Inc.)”, the relative increase in insulin protein content in glucose stimulated mouse pancreatic beta islet cells relative to vinculin (SDS-PAGE band density) is reported as > 2 fold.
